Biological target: T1, PD1-Fc (UniProt Q15116)
T1 construct: PD-1 (programmed cell death protein 1); most likely the extracellular domain of human PD-1 on a human IgG Fc
Test: BLI; BLItz system; biotinylated 102c3 nanobody immobilised on SA2 biosensors, dipped in serial dilutions of PD1-Fc
Conditions: both partners purified

T1 sequence (Q15116 25-170): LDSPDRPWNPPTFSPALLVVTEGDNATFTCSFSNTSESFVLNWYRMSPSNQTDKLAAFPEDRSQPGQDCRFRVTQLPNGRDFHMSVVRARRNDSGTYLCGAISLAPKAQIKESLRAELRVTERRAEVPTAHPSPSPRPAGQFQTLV

B1: nanobody 102c3 (anti-PD1 single-domain antibody, VHH), biotinylated (VHH)
VHH: EVQLVESGGGLVQAGKSLRLSCAASGSIFSIHAMGWFRQAPGKEREFVAAITWSGGITYYEDSVKGRFTISRDNAKNTVYLQMNSLKPEDTAIYYCAADRAESSWYDYWGQGTQVTVSS
notes: the whole synthesised fragment translates to MGSR...PQPDPSP; also called 102c3 nanobody; 102c3 VHH; source: E. coli BL21DE3-BirA, periplasm extract, purified (HIS Mag Sepharose Excel, dialysis against PBS); not shown: biotinylation signal, C-terminal, kept
binding result: binds
